For assay [1], the target named is Arkadia (RNF111) LONG, residues 876-994 (Ark LONG, 119 aa) (human) (UniProt Q6ZNA4).
Assay [2] shares this target. As to the kind of experiment: ITC; 1-3 mM E2 in the syringe injected (2 uL, 15-19 injections) into 100-300 uM Arkadia polypeptide in the cell; 25 °C; 50 mM KH2PO4, 50 mM K2HPO4 pH 7; single-site model. On the technique in general: In ITC the heat of successive injections is recorded.
Assay [3] deals with Arkadia LONG R983A (human) (UniProt Q6ZNA4). The description is as above.
Arkadia LONG R983A (human), sequence (Q6ZNA4 876-994 R983A): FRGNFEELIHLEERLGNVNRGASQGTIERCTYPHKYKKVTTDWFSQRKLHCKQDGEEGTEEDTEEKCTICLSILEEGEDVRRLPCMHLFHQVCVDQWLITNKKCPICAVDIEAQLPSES
The target in assay [4] is Arkadia LONG R983K (human) (UniProt Q6ZNA4). Described as above.
Arkadia LONG R983K (human), sequence (Q6ZNA4 876-994 R983K): as the sequence (Q6ZNA4 876-994 R983A) above, with A108K counted along it
The target of assay [5] is UbcH5B (Homo sapiens) (UniProt P62837). In words: ITC. The note with it: cited from earlier work.
UbcH5B (Homo sapiens), sequence (P62837 whole entry): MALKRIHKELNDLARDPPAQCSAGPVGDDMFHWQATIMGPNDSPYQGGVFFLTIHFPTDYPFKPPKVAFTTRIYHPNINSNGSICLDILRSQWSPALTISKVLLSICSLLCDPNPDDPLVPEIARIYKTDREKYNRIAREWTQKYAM

Arkadia (RNF111) LONG, residues 876-994 (Ark LONG, 119 aa) (human), sequence (Q6ZNA4 876-994): as the sequence (Q6ZNA4 876-994 R983A) above, with A108R counted along it
UbcH5B (UBE2D2), sequence (P62837 whole entry): as the sequence (P62837 whole entry) above
Arkadia RING RING, sequence (Q6ZNA4 939-986): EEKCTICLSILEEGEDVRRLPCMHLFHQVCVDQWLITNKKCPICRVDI

The substance “UbcH5B (UBE2D2) (from UniProt P62837 1-147) (enzyme)” had an in vitro auto-ubiquitylation of Ark LONG: time until polyubiquitylation is achieved in assay [1] of 5 min. The dH in assay [2] was -4.7 kcal/mol; in assay [3], -5.8 kcal/mol; in assay [4], -3.6 kcal/mol. Further, the stoichiometry N (commonly a count of units in the complex or per binding partner) was 0.6 in assay [2], 0.7 in assay [3] and 0.5 in assay [4].
For the substance Arkadia RING RING (from UniProt Q6ZNA4), the Kd – broadly, the constant that tells how readily two partners part at equilibrium – in assay [5] was 32 µM.

Source of the values: paper PMC9954413.
